Results on three molecules are retold here after US20090252724A1 (Hoffmann-La Roche, published 2009).

Test [1] deals with T1, Aβ1-40 fibers (human).
T1 construct: Synthetic peptide aggregated to fibers in vitro (200 µg/ml, 10 mM Na-acetate pH 4.0, 3 days, 37 °C) and coupled to a CM5 chip; also called Aβ1-40 fibrils; fibrillar Aβ40
Kind of test: SPR (Biacore), Aβ1-40 fibers on CM5, Scatchard; high affinity (bivalent) KD; experimental equilibrium responses. As to the method: (§1) Binding of ANTIBODY A to fibrillar Aβ was measured online by surface plasmon resonance (SPR), and the affinities of the molecular interactions were determined as follows: Biacore2000 and Biacore3000 instruments were used for these measurements. Aβ1-40 and Aβ1-42 fibers were generated in vitro by incubation of synthetic peptides at a concentration of 200 μg/ml in 10 mM Na-acetate buffer (pH 4.0) for three days at 37° C. Electron microscopic analysis confirmed a fibrillar structure for both peptides, Aβ1-40 showing predominantly shorter (<1 micron) and Aβ1-42 predominantly longer (>1 micron) fibers. These fibers were assumed to represent aggregated Aβ peptides in human AD brain more closely than ill-defined mixtures of amorphous aggregates and unstructured precipitates. The fibers were diluted 1:10 and directly coupled to a CM5 as described in the Instruction Manual of the manufacturer (BIAapplication Handbook, version AB, Biacore AB, Uppsala, 1998).
(§2) This coupling procedure included an activation step, during which the carboxylic acid groups on the surface were transferred into chemically reactive succinimide ester groups by contacting the surface with an aqueous mixture of N-hydroxysuccinimide and 1-ethyl-1-(3-[…])-carbodiimide hydrochloride, and an immobilization step, during which the activated surface was contacted with the fibres dissolved in 10 mM acetate buffer (pH 4.5) at 200-350 resonance units (1 resonance unit (RU) corresponds approximately to a surface loading of 1 picogram/mm²). The fiber loaded surface was then contacted with the antibody solutions in the concentration range 200 nM≧C≧0.15 nM. Typical time dependent response curves (=sensograms) monitored during the association phase (during contact with buffer) and the dissociation phase (subsequent contact with buffer) are shown in FIG. 7.
(§3) Briefly, KD values were calculated by Scatchard type analysis using concentration dependent equilibrium binding responses. These equilibrium binding constants could be obtained in two ways.

Test [2] concerns the target T1, Aβ1-40 fibers. Put plainly: SPR (Biacore), Aβ1-40 fibers on CM5, Scatchard; low affinity (monovalent) KD; experimental equilibrium responses. As to the method: as §1, §2, §3
Test [3] deals with T1, Aβ1-40 fibers. Kind of test: SPR (Biacore), Aβ1-40 fibers on CM5, Scatchard; high affinity (bivalent) KD; extrapolated equilibrium responses; stdev 0.10. As to the method:
(§4) Binding of ANTIBODY A to fibrillar Aβ was measured online by surface plasmon resonance (SPR), and the affinities of the molecular interactions were determined as follows: Biacore2000 and Biacore3000 instruments were used for these measurements. Aβ1-40 and Aβ1-42 fibers were generated in vitro by incubation of synthetic peptides at a concentration of 200 μg/ml in 10 mM Na-acetate buffer (pH 4.0) for three days at 37° C. Electron microscopic analysis confirmed a fibrillar structure for both peptides, Aβ1-40 showing predominantly shorter (<1 micron) and Aβ1-42 predominantly longer (>1 micron) fibers. […]
as §2, with “The fiber loaded surface was then contacted with the antibody solutions in the concentration range 200 nM≧C≧0.15 nM.” left out, “7. […]” for “7.”

The target of test [4] is T1, Aβ1-40 fibers. Put plainly: SPR (Biacore), Aβ1-40 fibers on CM5, Scatchard; low affinity (monovalent) KD; extrapolated equilibrium responses; stdev 8.40. Here is the method:
as §4
as §2, with “The fiber loaded surface was then contacted with the antibody solutions in the concentration range 200 nM≧C≧0.15 nM.” left out, “7. […]” for “7.”

For test [5], the target named is T1, Aβ1-40 fibers. Put plainly: SPR (Biacore), Aβ1-40 fibers on CM5, Scatchard; high affinity (bivalent) KD; extrapolated equilibrium responses; stdev 0.03. As to the method:
as §4
as §2, with “The fiber loaded surface was then contacted with the antibody solutions in the concentration range 200 nM≧C≧0.15 nM.” left out, “7. […]” for “7.”

Test [6] concerns the target T1, Aβ1-40 fibers. Put plainly: SPR (Biacore), Aβ1-40 fibers on CM5, Scatchard; low affinity (monovalent) KD; extrapolated equilibrium responses; stdev 0.15. Here is the method:
as §4
as §2, with “The fiber loaded surface was then contacted with the antibody solutions in the concentration range 200 nM≧C≧0.15 nM.” left out, “7. […]” for “7.”

Test [7] concerns the target T1, Aβ1-40 fibers. Put plainly: SPR (Biacore), Aβ1-40 fibers on CM5, Scatchard; high affinity (bivalent) KD; extrapolated equilibrium responses; stdev 0.02. As to the method: as §4
as §2, with “The fiber loaded surface was then contacted with the antibody solutions in the concentration range 200 nM≧C≧0.15 nM.” left out, “7. […]” for “7.”

In test [8] the target is T1, Aβ1-40 fibers. Put plainly: SPR (Biacore), Aβ1-40 fibers on CM5, Scatchard; low affinity (monovalent) KD; extrapolated equilibrium responses; stdev 22.33. As to the method:
as §4
as §2, with “The fiber loaded surface was then contacted with the antibody solutions in the concentration range 200 nM≧C≧0.15 nM.” left out, “7. […]” for “7.”

B1: ANTIBODY A COMPOSITION (mixture of mono- and double-glycosylated ANTIBODY A) (antibody, human IgG1, kappa, V domains shown)
VH: QVELVESGGGLVQPGGSLRLSCAASGFTFSSYAMSWVRQAPGKGLEWVSAINASGTRTYYADSVKGRFTISRDNSKNTLYLQMNSLRAEDTAVYYCARGKGNTHKPYGYVRYFDVWGQGTLVTVSS
VL: DIVLTQSPATLSLSPGERATLSCRASQSVSSSYLAWYQQKPGQAPRLLIYGASSRATGVPARFSGSGSGTDFTLTISSLEPEDFATYYCLQIYNMPITFGQGTKVEIKR
modifications: N-linked glycan at Asn52 (VH CDR2) on one or on both heavy chains (mixture of the two isoforms); N-linked glycan at Asn306 (Fc)
notes: also called Mixture of mono- and double-glycosylated ANTIBODY A isoforms (1:1)
For B1, the Kd was 0.41 nM with Aβ1-40 fibers [1], 21 nM with Aβ1-40 fibers [2], 0.49 nM with Aβ1-40 fibers [3] and 27.2 nM with Aβ1-40 fibers [4].

B2: non-glycosylated ANTIBODY A (antibody, human IgG1, kappa, V domains shown)
VH: B1 VH
VL: B1 VL
modifications: Asn52 not glycosylated; N-linked glycan at Asn306 (Fc)
notes: Human IgG1 kappa, made in CHO cells; no glycan in the variable region; also called non-glycosylated ANTIBODY A isoform; non-glycosylated isoform
Regarding B2, the Kd with Aβ1-40 fibers [1] was 0.42 nM; with Aβ1-40 fibers [2], 2.82 nM; in the test with Aβ1-40 fibers [5], 0.19 nM; with Aβ1-40 fibers [6], 1.99 nM.

B3: double-glycosylated ANTIBODY A (antibody, human IgG1, kappa, V domains shown)
VH: B1 VH
VL: B1 VL
modifications: N-linked glycan at Asn52 (VH CDR2) on both heavy chains; N-linked glycan at Asn306 (Fc)
notes: Human IgG1 kappa, made in CHO cells, separated by cation exchange chromatography; also called double-glycosylated ANTIBODY A isoform; double-glycosylated isoform
For B3, the Kd was 1.54 nM in the test with Aβ1-40 fibers [1], 29 nM with Aβ1-40 fibers [2], 1.43 nM with Aβ1-40 fibers [7] and 18.5 nM with Aβ1-40 fibers [8].
